Data on eight substances can be found in publication PMC12650144, “Interactive Role of the DHPR β1a SH3 Domain in Skeletal Muscle Excitation–Contraction Coupling” (Biomolecules, 2025).

Broadly, the Kd is the free concentration of one partner at which half of the binding sites on the other are occupied at equilibrium, for simple one-to-one binding. A lower Kd goes with higher affinity.

Holding throughout (assay): other fluorescence titration; tryptophan fluorescence quenching: intrinsic fluorescence of the β subunit or β1a-SH3 domain in the cuvette (sub-micromolar; 50 nM β1a-FL for the AID titration) monitored while titrating the II-III loop or peptides; excitation 280 nm, emission 340 nm; corrected for dilution and intrinsic fluorescence of the titrant; nonlinear regression
The target of assay [1] is DHPR β1a subunit, full length (mouse) (UniProt Q8R3Z5).
Chain of DHPR β1a subunit, full length (mouse) (Q8R3Z5 other isoform, or with tags, fused parts or gaps): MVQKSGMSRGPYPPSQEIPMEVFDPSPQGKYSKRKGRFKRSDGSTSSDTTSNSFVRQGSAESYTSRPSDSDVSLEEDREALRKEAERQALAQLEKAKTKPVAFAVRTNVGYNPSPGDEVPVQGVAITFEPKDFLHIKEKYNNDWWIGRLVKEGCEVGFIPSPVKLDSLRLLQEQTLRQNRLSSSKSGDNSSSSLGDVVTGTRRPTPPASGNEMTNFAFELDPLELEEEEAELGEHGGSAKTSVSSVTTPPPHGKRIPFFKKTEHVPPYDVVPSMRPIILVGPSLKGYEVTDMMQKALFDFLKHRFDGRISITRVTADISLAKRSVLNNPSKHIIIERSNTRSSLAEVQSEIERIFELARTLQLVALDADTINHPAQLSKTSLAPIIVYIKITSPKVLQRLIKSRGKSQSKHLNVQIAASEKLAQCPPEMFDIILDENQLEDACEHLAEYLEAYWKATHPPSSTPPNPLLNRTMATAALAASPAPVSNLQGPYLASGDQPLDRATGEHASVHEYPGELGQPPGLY
Assay [2] has as its target DHPR β1a SH3 domain (β1a residues V101-P272) (mouse) (UniProt Q8R3Z5).
In assay [3] the target is β1a/β2a RT loop chimera, HE to PG mutant (mouse).
For assay [4], the target named is β2a HE to PG mutant (mouse) (UniProt Q8CC27).

Chain of DHPR β1a SH3 domain (β1a residues V101-P272) (mouse) (Q8R3Z5 other isoform, or with tags, fused parts or gaps): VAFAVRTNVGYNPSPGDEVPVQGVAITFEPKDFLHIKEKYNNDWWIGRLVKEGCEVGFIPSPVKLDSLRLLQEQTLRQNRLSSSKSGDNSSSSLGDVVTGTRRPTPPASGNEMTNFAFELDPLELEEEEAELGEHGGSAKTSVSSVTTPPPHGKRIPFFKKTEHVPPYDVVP
Chain of α1s II–III loop C region peptide (residues 720–765) (P07293 720-765): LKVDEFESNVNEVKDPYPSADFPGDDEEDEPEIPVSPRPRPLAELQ

DHPR α1s I-II loop AID peptide: in assay [1], the dissociation constant Kd worked out at 0.0152 µM. On to “sP1 A⟶P mutant (from UniProt P07293 733-745) (peptide)”, for which the Kd in assay [2] is 2.3 µM; in assay [1] it was 4.5 µM. On to “sP1 D⟶E mutant (from UniProt P07293 733-745) (peptide)”, for which the Kd was determined as 17 µM in assay [2] and 15 µM in assay [1].

“sP1 F⟶T mutant (from UniProt P07293 733-745) (peptide)”: the dissociation constant Kd in assay [2] and in assay [1] was 4.6 µM throughout.

Turning to “sP1 P⟶T mutant (from UniProt P07293 733-745) (peptide)”, the Kd is 19 µM in assay [2] and 22 µM in assay [1]. On to “α1s C binding peptide 1 (from UniProt P07293 733-745)”, for which the equilibrium dissociation constant (Kd) in assay [2] came out at 2.6 µM; in assay [1], 3.6 µM. With “α1s C binding peptide 2 (from UniProt P07293 748-764)”, the Kd in assay [2] came to 3.8 µM; in assay [1] it was 5.4 µM. Take “α1s II–III loop C region peptide (residues 720–765) (from UniProt P07293 720-765)”: the results for the dissociation constant Kd in assay [3] and in assay [4] were 8.7 µM and 10.4 µM, respectively.
